Test results from publication PMC11467737, “Osteocalcin binds to a GPRC6A Venus fly trap allosteric site to positively modulate GPRC6A signaling” (FASEB BioAdvances, 2024).
Bridge positions count the residues as written; N and C are the ends. Ends that are not written are not given here.

How the values were obtained:
[1] = target: T1, human GPRC6A isoform 2 (Homo sapiens, UniProt Q5T6X5); test: cAMP accumulation in HEK-293 cells transfected with human GPRC6A isoform 2; format: cell-based; conditions: isoform 2; Ocn 1.73-26.0 nM; 1 mM calcium; 40 min; Figure 2C
T1 construct: expressed in transfected cells; host or cells: HEK-293
T1 sequence (Q5T6X5 19-751 isoform Q5T6X5-2 limits assumed): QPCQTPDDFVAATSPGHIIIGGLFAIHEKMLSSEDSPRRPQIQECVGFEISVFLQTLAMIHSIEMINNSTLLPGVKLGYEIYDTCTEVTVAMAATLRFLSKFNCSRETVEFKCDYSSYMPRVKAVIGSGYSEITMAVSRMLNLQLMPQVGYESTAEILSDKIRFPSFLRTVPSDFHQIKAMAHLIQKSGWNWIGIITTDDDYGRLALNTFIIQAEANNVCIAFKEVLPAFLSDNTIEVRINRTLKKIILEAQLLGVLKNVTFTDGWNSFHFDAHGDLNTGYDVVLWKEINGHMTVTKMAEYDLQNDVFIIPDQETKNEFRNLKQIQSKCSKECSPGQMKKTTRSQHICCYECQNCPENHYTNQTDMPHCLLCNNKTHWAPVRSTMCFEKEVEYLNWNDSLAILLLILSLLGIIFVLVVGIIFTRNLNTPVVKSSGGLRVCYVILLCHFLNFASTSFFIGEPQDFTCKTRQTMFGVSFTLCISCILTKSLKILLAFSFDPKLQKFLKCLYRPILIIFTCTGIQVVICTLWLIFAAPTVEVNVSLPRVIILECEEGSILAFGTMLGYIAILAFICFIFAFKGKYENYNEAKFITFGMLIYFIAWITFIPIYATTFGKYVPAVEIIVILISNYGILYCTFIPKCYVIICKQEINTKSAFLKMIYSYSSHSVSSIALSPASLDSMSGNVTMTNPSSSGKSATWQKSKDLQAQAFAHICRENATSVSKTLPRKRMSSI
Procedure: (§1) HEK‐293 transfected with human GPRC6A isoform cDNA plasmids cells (10^5 cells/well)[30] were cultured in 24‐well plates in DMEM supplemented with 10% fetal bovine serum and 1% penicillin/streptomycin (100 U/mL of penicillin and 100 μg/mL of streptomycin) for 48 h followed by 4 h incubation in DMEM/F12 containing 0.1% BSA and 0.5 mM IBMX to achieve quiescence and preventing cAMP degradation. Quiescent cells were treated with vehicle control, various ligands at concentration as indicated for 40 min at 37°C. Then, the reaction was stopped, and the cells lysed with 0.5 mL 0.1 N HCl. cAMP levels were measured by using Cyclic AMP EIA kit (Cayman Chemical; Ann Arbor, MA, USA) following the manufacture's protocol.

[2] = target: T1, human GPRC6A isoform 2; test: ERK activation (ELISA) in HEK-293 cells transfected with human GPRC6A isoform 2; format: cell-based; conditions: Ocn 1.73-26.0 nM, 1 mM calcium, 15 min, Figure 2B
Procedure: (§2) All culture reagents were from Invitrogen (Waltham, MA, USA). Human embryonic kidney HEK‐293 cells were obtained from American Type Culture Collection and cultured in DMEM medium supplemented with 10% fetal bovine serum and 1% Penicillin/Streptomycin (P/S). Briefly, HEK‐293 cells transfected with/without human GPRC6A isoforms cDNA plasmids were starved by overnight incubation in serum‐free DMEM/F12 containing 0.1% bovine serum albumin (BSA) and stimulated with various ligands at different doses. […]

[3] = target: T2, human GPRC6A isoform 3 (Homo sapiens, UniProt Q5T6X5); test: cAMP accumulation in HEK-293 cells transfected with human GPRC6A isoform 3; format: cell-based; conditions: isoform 3; Ocn 1.73-26.0 nM; 1 mM calcium; 40 min; Figure 2C
T2 construct: expressed in transfected cells; host or cells: HEK-293
T2 sequence (Q5T6X5 19-855 isoform Q5T6X5-3 limits assumed): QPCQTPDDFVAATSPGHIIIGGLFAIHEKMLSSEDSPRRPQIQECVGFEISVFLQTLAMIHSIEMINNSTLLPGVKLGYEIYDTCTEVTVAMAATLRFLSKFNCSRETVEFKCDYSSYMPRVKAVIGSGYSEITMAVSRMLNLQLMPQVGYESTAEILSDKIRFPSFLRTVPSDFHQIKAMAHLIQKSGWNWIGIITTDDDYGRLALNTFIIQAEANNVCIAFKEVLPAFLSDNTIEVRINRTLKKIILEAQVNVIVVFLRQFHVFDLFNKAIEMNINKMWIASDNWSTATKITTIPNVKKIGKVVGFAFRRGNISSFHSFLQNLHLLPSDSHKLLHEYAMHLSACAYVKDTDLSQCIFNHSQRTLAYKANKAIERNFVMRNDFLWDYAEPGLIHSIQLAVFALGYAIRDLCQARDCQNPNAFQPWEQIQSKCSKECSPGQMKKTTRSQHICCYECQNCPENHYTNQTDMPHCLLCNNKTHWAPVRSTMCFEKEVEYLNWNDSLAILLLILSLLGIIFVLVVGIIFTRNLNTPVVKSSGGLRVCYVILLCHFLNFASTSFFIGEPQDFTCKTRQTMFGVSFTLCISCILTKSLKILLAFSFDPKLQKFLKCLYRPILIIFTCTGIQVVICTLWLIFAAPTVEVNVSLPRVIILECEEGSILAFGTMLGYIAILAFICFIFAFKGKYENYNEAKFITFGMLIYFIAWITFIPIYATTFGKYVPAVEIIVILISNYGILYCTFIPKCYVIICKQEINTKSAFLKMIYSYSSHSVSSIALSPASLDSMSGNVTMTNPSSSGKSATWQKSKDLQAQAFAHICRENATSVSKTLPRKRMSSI
Procedure: as §1

[4] = target: T2, human GPRC6A isoform 3; test: ERK activation (ELISA) in HEK-293 cells transfected with human GPRC6A isoform 3; format: cell-based; conditions: Ocn 1.73-26.0 nM, 1 mM calcium, 15 min, Figure 2B
Procedure: as §2

[5] = test system: wild‐type (Gprc6a +/+) and global knock out (Gprc6a −/−) mice; test: Serum FGF-21 (ELISA) after intraperitoneal injection in mice; format: in vivo, mouse; conditions: 2 nmol/g IP, 24 h, n ≥ 5
Procedure: 8‐week‐old wild‐type (Gprc6a ^ +/+ ) and global knock out (Gprc6a ^ −/− ) mice were injected intraperitoneally with Ocn 20–29 (2 nmol/g body weight), or vehicle (saline; 10 μL/g body weight). Serum was collected at 24 h after intraperitoneal injection. Blood glucose levels were measured by using blood glucose strips and the Accu‐Check glucometer as described.[7], [31] A mouse IL‐6 ELISA Kit was purchased from Invitrogen (Waltham, MA, USA). Rat/Mouse FGF‐21ELISA Kit was obtained from Millipore Sigma (Burlington, MA, USA).
The Gprc6a ^ −/− mouse model was created by replacing exon 2 of the GPRC6A gene with the hygromycin resistance gene, as described previously.[32] Mice were maintained and used in accordance with recommendations as described (National Research Council 1985; Guide for the Care and Use of Laboratory Animals Department of Health and Human Services Publication NIH 86–23, Institute on Laboratory Animal Resources, Rockville, MD) and following guidelines established by the University of Tennessee Health Science Center Institutional Animal Care and Use Committee. The animal study protocol was approved by the institutional review boards at University of Tennessee Health Science Center Institutional Animal Care and Use Committee.

| Ocn-induced cAMP accumulation, dose response [1] | Ocn-induced ERK activation, dose response [2] | Ocn-induced cAMP accumulation, dose response [3] | Substance | Ocn-induced ERK activation, dose response [4] | Serum FGF-21 response ([5]; Gprc6a −/− mice) | Serum FGF-21 level versus vehicle ([5]; wild-type Gprc6a +/+ mice) |
| --- | --- | --- | --- | --- | --- | --- |
| complete loss of cAMP activation | attenuated ERK response | maintained the cAMP response | osteocalcin (YLYQWLGAPVPYPDPLEPRREVCELNPDCDELADHIGFQEAYRRFYGPV; not fully specified; ends and bridges not checked; UniProt P02818 52-100, looked up) [Ocn 1–49, full human Ocn (49 aa) synthesized by BioMatik; methods also describe decarboxylated Ocn purified from bovine tibial bone, reference compound] | attenuation of Ocn‐induced ERK stimulation |  |  |
|  |  |  | REVCELNPDC (disulfide 4-10 (inferred)) [Ocn 20–29, synthesized human Ocn decapeptide fragment located in the middle of the protein] |  | lost | significant increase |
